We go through 94 variants from the supplement of paper PMC10567573.

B1: TRAF3IP2 (parent)
chain: PRPPSNPPARGTLKTSNLPEELRK
B2: TRIM15 (parent)
chain: QSSGKILLCPLCQEEEQAETPMAP
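Note: lentivirally expressed fusions sorted by FACS into six bins by GFP to DsRed ratio, PSI derived from sequencing read proportions per bin multiplied by bin number.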

Variants of B1 are the subject of the first data set. Briefly: protein stability index of a GFP-peptide fusion (GPS, HEK-293T) (PSI 1-6); higher = more stable. Conditions: c terminus: a fixed tail appended.
With PRPPCNPPARGTLKTSNLPEELRK [S5C], the protein stability index turned out to be 4.28.
Take PRPPANPPARGTLKTSNLPEELRK [S5A]: the protein stability index came out at 4.32.
Take PRPPENPPARGTLKTSNLPEELRK [S5E]: the protein stability index was 4.55.
As to PRPPDNPPARGTLKTSNLPEELRK [S5D], the protein stability index came to 3.83.
Regarding PRPPFNPPARGTLKTSNLPEELRK [S5F], the protein stability index amounted to 4.45.
Turning to CRPPSNPPARGTLKTSNLPEELRK [P1C], the protein stability index amounted to 4.46.
VRPPSNPPARGTLKTSNLPEELRK [P1V]: the protein stability index turned out to be 4.42.
For the variant WRPPSNPPARGTLKTSNLPEELRK [P1W], the protein stability index is 4.76.
Take TRPPSNPPARGTLKTSNLPEELRK [P1T]: the protein stability index was 4.88.
For IRPPSNPPARGTLKTSNLPEELRK [P1I], the protein stability index was 4.59.
As to GRPPSNPPARGTLKTSNLPEELRK [P1G], the protein stability index came to 4.89.
As for ERPPSNPPARGTLKTSNLPEELRK [P1E], the protein stability index came out at 4.43.
The same measure, in the same setting: next, KRPPSNPPARGTLKTSNLPEELRK [P1K]: 4.63; DRPPSNPPARGTLKTSNLPEELRK [P1D]: 4.6; SRPPSNPPARGTLKTSNLPEELRK [P1S]: 4.62.
Still for that read-out and setting: next, YRPPSNPPARGTLKTSNLPEELRK [P1Y]: 4.46; QRPPSNPPARGTLKTSNLPEELRK [P1Q]: 4.74; FRPPSNPPARGTLKTSNLPEELRK [P1F]: 4.31.
Regarding ARPPSNPPARGTLKTSNLPEELRK [P1A], the protein stability index was 4.49.
As for HRPPSNPPARGTLKTSNLPEELRK [P1H], the protein stability index stood at 4.64.
In the case of LRPPSNPPARGTLKTSNLPEELRK [P1L], the protein stability index was found to be 4.67.
For the variant MRPPSNPPARGTLKTSNLPEELRK [P1M], the protein stability index was determined as 5.07.
For RRPPSNPPARGTLKTSNLPEELRK [P1R], the protein stability index is 4.44.
Regarding NRPPSNPPARGTLKTSNLPEELRK [P1N], the protein stability index worked out at 4.59.
For PRSPSNPPARGTLKTSNLPEELRK [P3S], the protein stability index was 4.95.
With PRMPSNPPARGTLKTSNLPEELRK [P3M], the protein stability index stood at 4.42.
On the same count and under the same terms, next, PRTPSNPPARGTLKTSNLPEELRK [P3T]: 4.9; PRAPSNPPARGTLKTSNLPEELRK [P3A]: 5.13; PRNPSNPPARGTLKTSNLPEELRK [P3N]: 4.29.
Consider PRLPSNPPARGTLKTSNLPEELRK [P3L], for which the protein stability index came to 4.5.
PRYPSNPPARGTLKTSNLPEELRK [P3Y]: the protein stability index is 4.7.
Consider PRGPSNPPARGTLKTSNLPEELRK [P3G], for which the protein stability index came out at 4.82.
Take PRQPSNPPARGTLKTSNLPEELRK [P3Q]: the protein stability index came to 4.2.
Consider PRFPSNPPARGTLKTSNLPEELRK [P3F], for which the protein stability index is 4.13.
Turning to PRVPSNPPARGTLKTSNLPEELRK [P3V], the protein stability index turned out to be 4.79.
With PREPSNPPARGTLKTSNLPEELRK [P3E], the protein stability index came out at 5.35.
For the variant PRKPSNPPARGTLKTSNLPEELRK [P3K], the protein stability index came out at 4.88.
Regarding PRIPSNPPARGTLKTSNLPEELRK [P3I], the protein stability index was determined as 5.05.
In the case of PRWPSNPPARGTLKTSNLPEELRK [P3W], the protein stability index was determined as 4.83.
On to PRDPSNPPARGTLKTSNLPEELRK [P3D], for which the protein stability index is 5.07.
Same read-out and setting: next, PRRPSNPPARGTLKTSNLPEELRK [P3R]: 4.54.
As for PRHPSNPPARGTLKTSNLPEELRK [P3H], the protein stability index worked out at 4.02.
Regarding PRCPSNPPARGTLKTSNLPEELRK [P3C], the protein stability index was 5.15.
Still for that read-out and setting: next, PRPWSNPPARGTLKTSNLPEELRK [P4W]: 4.61.
On the same count and under the same terms, next, PRPNSNPPARGTLKTSNLPEELRK [P4N]: 4.7.
The same measure, in the same setting: next, PRPFSNPPARGTLKTSNLPEELRK [P4F]: 4.25; PRPSSNPPARGTLKTSNLPEELRK [P4S]: 4.89.
On to PRPVSNPPARGTLKTSNLPEELRK [P4V], for which the protein stability index is 4.53.
For PRPHSNPPARGTLKTSNLPEELRK [P4H], the protein stability index worked out at 4.5.
Take PRPKSNPPARGTLKTSNLPEELRK [P4K]: the protein stability index is 4.91.
Take PRPISNPPARGTLKTSNLPEELRK [P4I]: the protein stability index is 4.66.
PRPYSNPPARGTLKTSNLPEELRK [P4Y]: the protein stability index was found to be 4.43.
In the case of PRPCSNPPARGTLKTSNLPEELRK [P4C], the protein stability index was 4.84.
Take PRPQSNPPARGTLKTSNLPEELRK [P4Q]: the protein stability index was 4.88.
With PRPRSNPPARGTLKTSNLPEELRK [P4R], the protein stability index was 4.49.
Take PRPLSNPPARGTLKTSNLPEELRK [P4L]: the protein stability index amounted to 4.58.
As to PRPGSNPPARGTLKTSNLPEELRK [P4G], the protein stability index was determined as 4.54.
Turning to PRPDSNPPARGTLKTSNLPEELRK [P4D], the protein stability index amounted to 4.7.
Consider PRPASNPPARGTLKTSNLPEELRK [P4A], for which the protein stability index is 4.79.
On to PRPESNPPARGTLKTSNLPEELRK [P4E], for which the protein stability index is 4.52.
For PRPTSNPPARGTLKTSNLPEELRK [P4T], the protein stability index was determined as 3.97.
Consider PRPMSNPPARGTLKTSNLPEELRK [P4M], for which the protein stability index came to 4.39.
Take PKPPSNPPARGTLKTSNLPEELRK [R2K]: the protein stability index came out at 4.56.
PCPPSNPPARGTLKTSNLPEELRK [R2C]: the protein stability index came out at 5.19.
For the variant PGPPSNPPARGTLKTSNLPEELRK [R2G], the protein stability index was found to be 5.12.
With PVPPSNPPARGTLKTSNLPEELRK [R2V], the protein stability index was determined as 4.63.
On to PSPPSNPPARGTLKTSNLPEELRK [R2S], for which the protein stability index is 5.25.
Still for that read-out and setting: next, PLPPSNPPARGTLKTSNLPEELRK [R2L]: 4.2.
As to PMPPSNPPARGTLKTSNLPEELRK [R2M], the protein stability index came to 5.08.
As to PWPPSNPPARGTLKTSNLPEELRK [R2W], the protein stability index was 4.85.
In the case of PEPPSNPPARGTLKTSNLPEELRK [R2E], the protein stability index turned out to be 4.85.
For PFPPSNPPARGTLKTSNLPEELRK [R2F], the protein stability index worked out at 5.09.
As for PQPPSNPPARGTLKTSNLPEELRK [R2Q], the protein stability index came out at 4.59.

The variants in the next data set derive from B2. The description is as above. To be noted: c terminus: a fixed tail appended.
For the variant QSSGKILLCPLCQEEEQAETTMAP [P21T], the protein stability index came to 3.16.
In the case of QSSGKILLCPLCQEEEQAETRMAP [P21R], the protein stability index is 1.83.
Still for that read-out and setting: next, QSSGKILLCPLCQEEEQAETIMAP [P21I]: 2.88; QSSGKILLCPLCQEEEQAETLMAP [P21L]: 2.86; QSSGKILLCPLCQEEEQAETCMAP [P21C]: 3.94.
For QSSGKILLCPLCQEEEQAETVMAP [P21V], the protein stability index came to 3.73.
With QSSGKILLCPLCQEEEQAETGMAP [P21G], the protein stability index came out at 3.19.
As to QSSGKILLCPLCQEEEQAETEMAP [P21E], the protein stability index came to 3.18.
Same read-out and setting: next, QSSGKILLCPLCQEEEQAETHMAP [P21H]: 2.98; QSSGKILLCPLCQEEEQAETDMAP [P21D]: 3.93; QSSGKILLCPLCQEEEQAETNMAP [P21N]: 3.85.
Still for that read-out and setting: next, QSSGKILLCPLCQEEEQAETKMAP [P21K]: 2.43.
Take QSSGKILLCPLCQEEEQAETAMAP [P21A]: the protein stability index was 3.
Still for that read-out and setting: next, QSSGKILLCPLCQEEEQAETYMAP [P21Y]: 2.68.
On the same count and under the same terms, next, QSSGKILLCPLCQEEEQAETFMAP [P21F]: 3.13; QSSGKILLCPLCQEEEQAETQMAP [P21Q]: 3.39; QSSGKILLCPLCQEEEQAETMMAP [P21M]: 2.45.
Turning to QSSGKILLCPLCQEEEQAETSMAP [P21S], the protein stability index was 3.76.
Consider QSSGKILLCPLCQEEEQAETPMDP [A23D], for which the protein stability index worked out at 3.96.
QSSGKILLCPLCQEEEQAETPMVP [A23V]: the protein stability index turned out to be 4.12.
Same read-out and setting: next, QSSGKILLCPLCQEEEQAETPMMP [A23M]: 3.69.
